Measurements published in publication PMC6667215, “Cell-sized confinement controls generation and stability of a protein wave for spatiotemporal regulation in cells” (eLife, 2019).

Molecular target: T1, sfGFP-MinD^D40AΔ10 (E. coli MG1655, UniProt P0AEZ3 1-260, D40A)
T1 construct: MinD of E. coli MG1655 with the D40A mutation and deletion of the C-terminal 10 amino acids, made from pET15-sfGFP-minD; 55 kDa after removal of the 2 kDa His-Tag (so in the source); also called MinD mutant treated by thrombin; His-sfGFP-MinD^D40AΔ10 (before cleavage); not shown: His tag, N-terminal, cleaved; sfGFP, N-terminal, kept
T1 sequence (looked up): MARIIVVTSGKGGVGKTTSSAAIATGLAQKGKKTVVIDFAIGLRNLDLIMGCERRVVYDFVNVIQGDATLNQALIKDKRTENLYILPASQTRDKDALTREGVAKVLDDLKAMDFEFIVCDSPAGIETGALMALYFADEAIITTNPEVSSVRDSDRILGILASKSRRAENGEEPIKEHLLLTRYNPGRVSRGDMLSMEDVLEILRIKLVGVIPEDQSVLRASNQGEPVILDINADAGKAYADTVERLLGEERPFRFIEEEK
Assay: pull-down; His-tagged Min protein held on cOmplete His-Tag purification (Ni-NTA) resin; 9 µM MinE-mCherry-His, 3 µM His-sfGFP-MinD or 6 µM thrombin-treated MinD^D40AΔ10, with or without 3 µM BSA; RE buffer, 30 min, room temperature; washed with 20 mM imidazole, eluted with 250 mM imidazole; SDS-PAGE and CBB staining
Settings: both partners purified

- binding result: binds
B1: MinE-mCherry-His (natural protein, E. coli K12 MG1655, UniProt P0A734 1-88, looked up)
chain: MALLDFFLSRKKNTANIAKERLQIIVAERRRSDAEPHYLPQLRKDILEVICKYVQIDPEMVTVQLEQKDGDISILELNVTLPEAEELK
notes: MinE, gene amplified from the E. coli K12 MG1655 genome and cloned into pET29a with mCherry (pET29-minE-mCherry-His); The 6xHis-tag was attached at the C-terminal of mCherry by PCR; the mCherry gene came from the pET21b-RL027A plasmid (Addgene); source: E. coli BL21-CodonPlus(DE3) RIPL, purified (His-Tag purification resin, HiTrap Q HP); not shown: mCherry, C-terminal, kept; 6xHis, C-terminal, …
